Laboratory results reported in a protein production outcome set (Wang et al. 2014).

Assay: label from the status in PepcDB records

**Q.** Which protein production does the source give for “MPGAEKGPQPRRPDFTEAGVIQNRAAGRNRSPDPSPDGAQARRRSWRNQGAWLSFVAWPHRRGSATVEPPPLTLRQQLTTVRWLLTGLFAMMLLVFLYFGRDVLMPIVLALLLALMLSPIVRLLRRRKVPEGVAAVVVTLGFAAGMLLIGFTISGPVATWLEDAPSIGKRIAHKLSSLRESFDVVLDASRQVEEAADTSSKDNTDRVVMAQPGLLVKAADSLASGFTTFGVTIVITLFFLASGSMFTEKIVHVMPLFRDKLRVLRVVRDIETEVSSYLLTVAMINAGLGVAVGCALWLAGMPNAFLWGGMAMVLNFLPYIGSMIGISLVALVSFVTFDSLGQALIPPLSYLAVTSVEGQFLTPAIVGRRLELNALSVMLAVLFWAWLWGIVGALIAVPLLVVVKVVCSHFEGLAVVGEFLSARRPFSDQVKDGA” here?
**A.** The protein production was “failed”.

**Q.** With “MPGFDYKFLEKPKRRLLCPLCGKPMREPVQVSTCGHRFCDTCLQEFLSEGVFKCPEDQLPLDYAKIYPDPELEVQVLGLPIRCIHSEEGCRWSGPLRHLQGHLNTCSFNVIPCPNRCPMKLSRRDLPAHLQHDCPKRRLKCEFCGCDFSGEAYESHEGMCPQESVYCENKCGARMMRRLLAQHATSECPKRTQPCTYCTKEFVFDTIQSHQYQCPRLPVACPNQCGVGTVAREDLPGHLKDSCNTALVLCPFKDSGCKHRCPKLAMARHVEESVKPHLAMMCALVSRQRQELQELRRELEELSVGSDGVLIWKIGSYGRRLQEAKAKPNLECFSPAFYTHKYGYKLQVSAFLNGNGSGEGTHLSLYIRVLPGAFDNLLEWPFARRVTFSLLDQSDPGLAKPQHVTETFHPDPNWKNFQKPGTWRGSLDESSLGFGYPKFISHQDIRKRNYVRDDAVFIRAAVELPRKILS” as the sequence, how does the protein production read?
**A.** Its protein production is “not failed”.

**Q.** For “MPGFLTADLIRARLAPKDFQRGEEYLKDGRVLKAEWVADDEISGQVAGSAGRRYVQTITLENGLGGLSIVGYCSCPVGFACKHVAAVLLTLAREAEPVVPAWDGSFGARPAQAAVSEPTLDPALAEWIAAVAGFEEVGDPEAYPPAIRHRLIYVVGPQGEGGVPQNGEGRSESRGGGRVSAEIEVTLWSIAVLKDGQMSSVERRILSADALVRSPARPAYLRPSDLALVPRLAALRAPGGGNALLLPQISGSELFAAMVASGRCRWGGPDGPTLYPGAARRAKLVWRSDGEGWQRPAIEPEAMAPEAADPETAQPDIGQPYIAQPAIPEIGALDGEAVEAPTRTDPDDASPAPEDGESGQSPEAEAWDLRALPIEPPAYVDPRSGETGPLDLGLDPRLAARLLSAPPIPPTSVDAVRSRLGALLPAAVPVLPAPIDAQPLSVAPQPILRLLALRAVPRMRGAEMPGETTQALVARPCFAYDSVILPADSSEPAPLRMVGASLMRIERDFAAEGTALRQLDRIGPLRVAEALGRVRVEGGISADRLIAPPFLPRGEERERAVDFLRDGVPDLEEAGWRIEIDPDFPVRPVVADSQDWWGGLNAVGGLEGTVGGWLSVGLGVTIDGERVDLLPALLTLLGEGEDLVEREEDELLYLPLGDGRVLPVAVRRLRPIFHALHAVAVPDERAGPGVRLSGRDLGPLALLEEAGKPLGVVWEGAEGARDIARRLAVVGLREAVAPPKGLVGSLRAYQNEGLDWLQFLRANNLGGILADDMGLGKTLQTLAHILVEKESGRLNDPVLIVAPTSVLGAWRREAAQFAPGLRLVVLHGPERAAGFSQMADQDVVVTSYALVRHDLEVLKAQPWHMLVLDEAQTIRNPQTVQYKAVAALKARHRLFLTGTPLENHLGDLWALMDLLMPGLLGDGATFRRVFRGPIEKRGDGPRRRALAVRVRPFILRRTKDEVATDLPAKTEMIDMVELEGGQRDLYEAVRLAAHKAIREVLAEKGLARGRIHILAALTRLRQVCCDPRLVKGGPRKPPPSAKLDRLEEMLRDLVDEGRRTLVFSAFPSMLALVEERLAAASIPWVSLTGETRDRDTPVTRFQSGAVPVFLISLKAGGTGLTLTAADTVIHYDPWWNPAVEAQATDRAHRIGQDKPVFVHKLVAAGTVEERILALQDRKRGLLDGLFDGEAGPSSLLSEEVIEEILRPLG”, which protein production is on record?
**A.** The protein production was “failed”.

**Q.** With “MPGIDKLPIEETLEDSPQTRSLLGVFEEDATAISNYMNQLYQAMHRIYDAQNELSAATHLTSKLLKEYEKQRFPLGGDDEVMSSTLQQFSKVIDELSSCHAVLSTQLADAMMFPITQFKERDLKEILTLKEVFQIASNDHDAAINRYSRLSKKRENDKVKYEVTEDVYTSRKKQHQTMMHYFCALNTLQYKKKIALLEPLLGYMQAQISFFKMGSENLNEQLEEFLANIGTSVQNV” as the sequence, how does the protein production read?
**A.** Its protein production is “failed”.

**Q.** With “MPHFHFSWREKFSVFRMAAEPPEKLVGALVGGLRVLRYLSAAPAGVGVTRVARDLQLNSSTCYNFLKTLVYEGLVTFDESTKTYSIALGLVELAKGVLEQGAYVRLIHPHLEEIARAHRVTATLWQRTSNERVVLVDRADNDSSVRVHMSVGQRLPMYIAALGRCMAANAGLDRDQLEQRFNALRWDDKPPFDEYLAGVQEARKNGYATDAGHYVKGVSTASAAVLDAFGKPVMAISAVGFSAQFTGDALEQLGEDLHERAGRITRALSGGRAGADS” as the sequence, how does the protein production read?
**A.** Its protein production is “failed”.

**Q.** For “MPIKKPCLKLNLDSLNVVRSEIPQMLSANERLKNNFNILYNQIRQYPAYYFKVASNVPTYSDICQSFSVMYQGFQIVNHSGDVFIHACRENPQSKGDFVGDKFHISIAREQVPLAFQILSGLLFSEDSPIDKWKITDMNRVSQQSRVGIGAQFTLYVKSDQECSQYSALLLHKIRQFIMCLESNLLRSKIAPGEYPASDVRPEDWKYVSYRNELRSDRDGSERQEQMLREEPFYRLMIE”, which protein production is on record?
**A.** The protein production was “failed”.

**Q.** Which protein production does the source give for “MPISAHYGLTVLIWGLTWTAIRLQVESASVDLAVFYRFVMASVVALAVLAVTRRLSRLTLGQHGWLFLQGLTLYSVNFLLIYRAAESMTSGLLAVVFSLAALFNAFNGWLWLRTRPTARLYPAVALGVTGVALLFWHDLQLGNATGASILFAVAGTFWFSMGNLVSVKVKAAGVPLFTANAWAMVYGALILGLWCLIQGVEWMLPATSVFWGATVFLAVPGSIVAFYCYITVIQVLGADKAGYAAVLFPVVALSVSTWLEGFEWTTPAMLGALLAILGNYVLFRPGKRQSVSATSVPEQRT” here?
**A.** The protein production was “failed”.

**Q.** Which protein production does the source give for “MPITIGNGFLKSEILTNSPRNTKEAWWKVLWEKIKDFFFSTGKAKADRCLHEMLFADRTPTRERLTEIFFELKELACASQRDRFQVYNPNENDDTIILRIMDQNEENELLRITQNTDAFTCEVMGNAYFLIKDRPDILKPHPQMTAMINRRYSEIVDYPLPSTLCLNPAGAPTLSVPLDNIEGYLYSEWRKGNLDEWKTQEKVTYLAAKIQSGIEKTTRILQHANISESTQQSAFLETMAMCGLKQLEIPPPHTHIPIEKMVKEVLLADKTFQAFLVTDPSTSQSMLAEIVEAISDQVFHAIFRIAPQAIQKMAEEQLTTLHVRSEQQSGCLCCFL” here?
**A.** The protein production was “failed”.

**Q.** For “MPKEKYEPPDPRRMYTIMSSEEAANGKKSHWAELEISGKVRSLSSSLWSLTHLTALHLSDNSLSCIPSDIAKLHNLVYLDLSHNQIQSLPAELGNMVSLRELHLNYNQLRVLPFELGKLFQLQTLSLKGNPLTQDILNLCLEPDGTRRLLNYLLDNLSVSTEQPPPRSWIMLQEPDRTRPTALFSVMCYNVLCDKYATRQLYGYCPSWALNWDYRKKAIIQEILSCNADIISLQEVETEQYYSFFLVELKERGYNGFFSPKSRARTMSEQERKHVDGCAIFFKTEKFTLVQKHTVEFNQLAMANSEGSEAMLNRVMTKDNIGVAVLLELRKELIEMSSGKPHLGTEKQLILVANAHMHWDPEYSDVKLVQTMMFLSEVKNIIDKASRSLKSSVLGECGTIPLVLCADLNSLPDSGVVEYLSTGGVETNHKDFKELRYNESLTNFSCNGKNGMTNGRITHGFKLKSAYENGLMPYTNYTFDFKVSFHSLIFISMFCNFLSLKHQCML”, which protein production is on record?
**A.** Its protein production is “failed”.

**Q.** For “MPKERVDVLAYKQGLFETREQAKRGVMAGLVVNVINGERYDKPGEKIDDGTELKLKGEKLRYVSRGGLKLEKALAVFNLSVEDMITIDIGASTGGFTDVMLQNGAKLVYAVDVGTNQLVWKLRQDDRVRSMEQYNFRYAEPVDFTEGLPSFASIDVSFISLNLILPALAKILVDGGQVVALVKPQFEAGREQIGKNGIVRESSIHEKVLETVTAFAVDYGFSVKGLDFSPIQGGHGNIEFLAHLEKTDSPQNDVPTSIKEVVAQAHKEFKKNEEERSFGVNPKDCPRK”, which protein production is on record?
**A.** The protein production was “not failed”.

**Q.** For “MPKILWKSLHLCFPSNLTKCYSSPCIPPSSADPDGIIQPNRPSIVLLNNFNLLYHNDNHHHPHRVIDLPSSSTTTTPAATSSSSTSSYESDISPDVSAAFASRRFFFSSPGRSNAITDSPEPRSREFSDNYDDATITSTKKKKKKVYDNSVTTTTTRLISGGTAVTQHVDSPDPLTDFRRSMQEMIDAAIDAGELSRDPNDGYDFLDELLLTYLSLNPADTHKFVIRAFSDILVSLLSEERRIC”, which protein production is on record?
**A.** The protein production was “failed”.

**Q.** For “MPKIPITLITGFLGSGKTSFLSEYLNQTDHQGVALIINEIGQAALDQRILSVQYCGEKMLYLNAGCVCCNKRLDLVESLKATLNNYEWHGEILRRIIIETTGLANPAPILWTILSDTFLGVHFEIQSVVACVDALNAREHLTNNEAKEQIVFADSVLLTKTDLQNDSAALTKLKERIQALNPSAEIFDKRAIDYESLFSRKNRARNFMPRMPKDSHSQGFETLSINFEGTMEWSAFGIWLSLLLHQYGTQILRIKGIIDIGSGFLVSINGVMHVIYPPKHILKDQNGSNLVFIMRHLEREKILNSLKGFKDFLGIKGFETQLEHHHHHH”, which protein production is on record?
**A.** The protein production was “not failed”.

**Q.** With “MPKIWTERIFDDPEIYVLRIDDDRIRYFEAVWEIPEGISYNAYLVKLNGANVLIDGWKGNYAKEFIDALSKIVDPKEITHIIVNHTEPDHSGSLPATLKTIGHDVEIIASNFGKRLLEGFYGIKDVTVVKDGEEREIGGKKFKFVMTPWLHWPDTMVTYLDGILFSCDVGGGYLLPEILDDSNESVVERYLPHVTKYIVTVIGHYKNYILEGAEKLSSLKIKALLPGHGLIWKKDPQRLLNHYVSVAKGDPKKGKVTVIYDSMYGFVENVMKKAIDSLKEKGFTPVVYKFSDEERPAISEILKDIPDSEALIFGVSTYEAEIHPLMRFTLLEIIDKANYEKPVLVFGVHGWAPSAERTAGELLKETKFRILSFTEIKGSNMDERKIEEAISLLKKELE” as the sequence, how does the protein production read?
**A.** The protein production was “not failed”.

**Q.** With “MPKKLGPKSQRQRGAVAPLTQVQQAACSPTYKQAKRNARSYQGRRRRRRCSQNTTSRVPSQLQAVDSSSASCRTYKNSEELRSRIVSGIITPIHEQWEKANVSSPHREFPPATAREVDPLRIPPHHPHTSRQPPWCDPLGPFVVGGEDLDPFGPRRGGMIVDPLRSGFPRALIDPSSGLPNRLPPGAVPPGARFDPFGPIGTSPPGPNPDHLPPPGYDDMYL” as the sequence, how does the protein production read?
**A.** Its protein production is “failed”.

**Q.** Which protein production does the source give for “MPKLNLTSIDVLLSDDSDRRQLACKSNHSTVSSLPAMDSRESITSTSPEVAILLCTYHGQRYLPEQLASFEVQSHSNWKVWASDDGSEDGTHAILDAYSRKWPEGRLSICSGPSEGFAANFISLTCKDSIQADFYAYSDQDDIWNVNKLARAVQWLETVPVNIPALYCSRTRLVDSDDNEIGISPLFVRPPSFANALMQNIGGGNTMVFNNAARELFCEAGENTLVVAHDWWAYIAVTGCGGQVFYDREPTLRYRQHNGNLIGTNSNWSARFKRIHMLFQGEFRRWSDINIAALGALEHKLTPENREILQRFASGRKMSLIPRLIQFKRAGIYRQTLFSNFGLVVAAIFGKV” here?
**A.** The protein production was “failed”.

**Q.** Which protein production does the source give for “MPKLTKRILDAAGARPTPYFLWCSDLKGFGVRIFPSGRRVYYADYRTAAGMRRRMSLGEHGKLTVDEARRLAITTLGDVIRGDDPIEERVTRRKSLTIAELCRRYLEAAGAGLVLGRGRKPKKATTLVSDRGRIEHHIVPLLGSRLVRDLTTAEVQRFVRDVQAGRTAKRYKTKARGMVLVEGGAGAAARTAGLLGGIMSYAIGEGVIALNPVRGVKRPADRKKDRRLSPEEYRALGRVLAEAEGDRESWQAVSSIQLLCLTGCRMREIANLRWTEVDFAGRCLRLDNTKEGRSIRPLGQAAVALLRQIEERRAGPYVLPATRGEGGFGGIPDAIERYSKRAGLPGIGAHTLRHSFASTAADLGCSDSTIGAMLGHAGHGVTSRYIHHLDAVLIMAADRVTTAMAGWLKDRYAERLEPAYPASRTVPLS” here?
**A.** Its protein production is “failed”.
